Here are results for 36 sequences from the supplement of paper PMC12764529.

± gives the half width of the 95% confidence interval.

The nature of series [1]: folding stability dG unfold from trypsin proteolysis; higher = more stable. The method in brief: (§1)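 Bayesian fitting of sequencing counts gave K50 for each design. Unfolding free energy followed by setting this against a sequence-predicted unfolded-state K50 and a shared folded-state K50, either per protease or with trypsin and chymotrypsin combined. The designs, under 80 residues and lacking cysteine, were digested in a PA-tagged cDNA display format at 11 threefold-diluted protease concentrations and without protease, and only those with AlphaFold2 dimer inter-PAE above 15 were kept.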

Series [2] can be described thus: folding stability dG unfold from chymotrypsin proteolysis; higher = more stable. A digest of the protocol:
as §1

Series [3] can be described thus: folding stability dG unfold (combined trypsin and chymotrypsin); higher = more stable. The method in brief:
as §1

For the sequence “SAGGSAGGSADEIPIMIKIKYKNGGKKREHTITFRVEPNMPNLDEFAKELANNGRIEEVEISAGGSAGGSAG [r3_30_TrROS]”, the “folding stability dG unfold” value in series [1] was 0.629 ± 0.14 kcal/mol; in series [2], -0.282 ± 0.59 kcal/mol; in series [3] it was 0.28 ± 0.25 kcal/mol.
In the same order, the values of “SAGGSAGGSADEPETTTTTTTTTTTKKPAPPAPPKTITLDVEVNGKTLRLTFTSKEALDALSAGGSAGGSAG [r3_426_TrROS_Hall]” are 0.931 ± 0.021 kcal/mol, 0.945 ± 0.1 kcal/mol and 1.03 ± 0.15 kcal/mol.
For “SAGGSAGGSADGNTPVEVTITLTDPKTGAVTTVPVVLPTSVSVEEVAAELAAKFGLTTVTVTSAGGSAGGSA [r18_58_JUSTAS]”, the “folding stability dG unfold” value is 1.06 ± 0.027 kcal/mol in series [1], 0.521 ± 0.04 kcal/mol in series [2] and 0.864 ± 0.037 kcal/mol in series [3].
With “SAGGSAGGSADKIEIRVKLKIPNTDEILTFPIWVDPENPEEVAKAIAAWLEKNGYEIESFEGSAGGSAGGSA [r18_3_TrMRF]”, the entries for the “folding stability dG unfold” value in series [1], in series [2] and in series [3] were 3.53 ± 0.23 kcal/mol, 4.14 ± 0.15 kcal/mol and 3.98 ± 0.16 kcal/mol, respectively.
In the same order, the values of “SAGGSAGGSADKIPVKIKVKLKDGDKEYEVTVTVTLDVNDPNLDAFAKELASSGKIEEVEASAGGSAGGSAG [r3_30_TrMRF]” are 0.877 ± 0.072 kcal/mol, 1.03 ± 0.15 kcal/mol and 0.973 ± 0.19 kcal/mol.
In the same order, the values of “SAGGSAGGSADNPDDKKKQKPKPEIKVKVEWVVIPNGFLIFEITIAGGITLTIIIPFPPNMFSAGGSAGGSA [r18_192_TrROS]” are 2 ± 0.058 kcal/mol, 3.09 ± 0.035 kcal/mol and 2.84 ± 0.16 kcal/mol.
In the same order, the values of “SAGGSAGGSADPNAFPITIFTFKMEIEDVEKTPNGQPELRYKMEVVEIRPIWLPPDDLEDLSAGGSAGGSAG [r3_121_TrROS]” are 3 ± 0.16 kcal/mol, 4.39 ± 0.097 kcal/mol and 3.79 ± 0.15 kcal/mol.
Turning to “SAGGSAGGSAEEEEMPVEELVRRKAREVEEAFPGLRGERRITVTVTLPEGETWTAELVLPLSAGGSAGGSAG [r3_64_TrMRF]”, the results for the “folding stability dG unfold” value in series [1], in series [2] and in series [3] were 0.19 ± 0.19 kcal/mol, 0.502 ± 0.18 kcal/mol and 0.507 ± 0.13 kcal/mol, respectively.
In the same order, the values of “SAGGSAGGSAEELVKYLAKEHGHPPGKEVTIPFDNWMIKIRYNNDGVPVGVEIKPMPPDDMSAGGSAGGSAG [r3_468_TrROS]” are 0.717 ± 0.025 kcal/mol, 0.288 ± 0.12 kcal/mol and 0.593 ± 0.098 kcal/mol.
Take “SAGGSAGGSAEKTLTVVIKVKPNKTPEEIAKEIKKKLNLPNVEIVSIEYDKETNYITIKVKVSAGGSAGGSA [r18_481_TrROS_Hall]”: the “folding stability dG unfold” value in series [1] worked out at 3.6 ± 0.086 kcal/mol; in series [2] it was 3.39 ± 0.056 kcal/mol; in series [3], 3.47 ± 0.12 kcal/mol.
In the same order, the values of “SAGGSAGGSAEPPEPEVVAVTVEITEEDGELTITVTNEDTGEKYTFTLKNVEVKPGDTLLIRSAGGSAGGSA [r18_89_TrROS_Hall]” are 0.402 ± 0.26 kcal/mol, 1.77 ± 0.34 kcal/mol and 1.21 ± 0.56 kcal/mol.
The corresponding values for “SAGGSAGGSAEYIVVNSDEQLKALKELGGVKEVERKENFVVVEFPDIPPELREKLLEVIKESAGGSAGGSAG [r3_398_TrMRF]” are -0.0633 ± 0.15 kcal/mol, -0.805 ± 0.94 kcal/mol and -0.366 ± 0.5 kcal/mol.
In the same order, the values of “SAGGSAGGSAFIRAEYKLPENKVLEIEIPVPESVLKKMSIEEVKELFKKLGLPDDVKIEFYDESAGGSAGGS [r12_742_TrMRF]” are 1.43 ± 0.041 kcal/mol, 1.78 ± 0.15 kcal/mol and 1.66 ± 0.098 kcal/mol.
As for “SAGGSAGGSAGAANDPKKIPIHIFPPDGKPIFKVKIEVYDNGIKIKIEWHPSPDGLYPMISAGGSAGGSAGG [r11_874_TrROS]”, the “folding stability dG unfold” value in series [1] was 1.9 ± 0.089 kcal/mol; in series [2] it was 1.98 ± 0.082 kcal/mol; in series [3] it was 1.99 ± 0.14 kcal/mol.
In the same order, the values of “SAGGSAGGSAGAAPDGETVRITAVFVNPETQEVFVVEATINPDGELTMEVKEVFKLPEGLSAGGSAGGSAGG [r11_226_TrROS_Hall]” are 1.42 ± 0.033 kcal/mol, 2.782 ± 0.017 kcal/mol and 2.36 ± 0.068 kcal/mol.
The corresponding values for “SAGGSAGGSAGAAVSPEELKEKAKKEGYDGEVVVTRLPDGTLRVTVKDKGKKSEITVPLESAGGSAGGSAGG [r11_410_JUSTAS]” are 0.263 ± 0.064 kcal/mol, 0.942 ± 0.041 kcal/mol and 0.672 ± 0.11 kcal/mol.
In the same order, the values of “SAGGSAGGSAGAEELAKKLKELGFEVKVEKNEDGSLTLTVKFKPKPKPKKVVTKDGKEVKSAGGSAGGSAGG [r17_503_TrROS_Hall]” are 0.579 ± 0.076 kcal/mol, 1.9 ± 0.11 kcal/mol and 1.61 ± 0.26 kcal/mol.
Turning to “SAGGSAGGSAGAFVGYRDEGGRYWLRTPEGELELDSEEDALEWADFLRANGIPLLSEPRPSAGGSAGGSAGG [r17_35_TrMRF]”, the “folding stability dG unfold” value in series [1] was found to be 1.08 ± 0.032 kcal/mol; in series [2] it was 1.59 ± 0.11 kcal/mol; in series [3], 1.43 ± 0.073 kcal/mol.
The corresponding values for “SAGGSAGGSAGAGKVVFEVDIKTFLGKRKDGSDAPKTIIEIKVFDIAPLDPNDPVLKALISAGGSAGGSAGG [r11_236_TrMRF]” are 2.28 ± 0.11 kcal/mol, 3.54 ± 0.15 kcal/mol and 3.26 ± 0.22 kcal/mol.
In the same order, the values of “SAGGSAGGSAGALPFKVKVVEVEVDGDEVTVKVVAELPTGTATVELKLGGKLETLTISPVSAGGSAGGSAGG [r17_45_TrMRF]” are 1.49 ± 0.19 kcal/mol, 2.47 ± 0.13 kcal/mol and 2.16 ± 0.24 kcal/mol.
The corresponding values for “SAGGSAGGSAGAPNIVVVTLTRDALFYNPVEGKWEVKPVTLTRAFTSKEEADKWLEEIGLSAGGSAGGSAGG [r11_984_TrMRF]” are 2.95 ± 0.091 kcal/mol, 3.84 ± 0.042 kcal/mol and 3.5 ± 0.095 kcal/mol.
In the case of “SAGGSAGGSAGAPPEGAKPVEEETVPIEIQMRNDDDGKPIMPIKFEVRVYKFPDGIFISISAGGSAGGSAGG [r11_415_TrROS]”, the “folding stability dG unfold” value in series [1] was 1.34 ± 0.13 kcal/mol; in series [2], 2.91 ± 0.042 kcal/mol; in series [3], 2.45 ± 0.21 kcal/mol.
The corresponding values for “SAGGSAGGSAGAYRVEVNVELTPEAREAFLKNPELPADAEIPVVVSGRVEPVPLGPEGVLSAGGSAGGSAGG [r17_194_TrMRF]” are -0.58 ± 0.2 kcal/mol, 0.0793 ± 0.14 kcal/mol and -0.143 ± 0.12 kcal/mol.
The corresponding values for “SAGGSAGGSAGDDNDGKKKFPMTIKIPPIPIEIPPGMKITSWIPIRIPGGLEFPIIYITPSAGGSAGGSAGG [r11_388_TrROS]” are 0.923 ± 0.045 kcal/mol, 1.1 ± 0.12 kcal/mol and 1.03 ± 0.098 kcal/mol.
The corresponding values for “SAGGSAGGSAGDIDPEDDIFYLTVRLKDGVPFVLPVRYDDIPFIPPEFVEEATFHKPKDISAGGSAGGSAGG [r11_779_TrMRF]” are 0.365 ± 0.096 kcal/mol, 0.0924 ± 0.18 kcal/mol and 0.246 ± 0.083 kcal/mol.
“SAGGSAGGSAGDKPITIFIPGTPDDIKDYIEDEGFKIKDIEIQYHKNKDGKYWVMVTIRVSAGGSAGGSAGG [r11_632_TrROS]”: the “folding stability dG unfold” value in series [1] was 2.87 ± 0.18 kcal/mol; in series [2], 3.33 ± 0.13 kcal/mol; in series [3] it was 3.19 ± 0.25 kcal/mol.
The corresponding values for “SAGGSAGGSAGDNIYVFEIDIKIKPRKDPDGKWQPEIEINIKIKDIKPIPPNDPELKDLLSAGGSAGGSAGG [r11_236_TrROS]” are 2 ± 0.05 kcal/mol, 1.99 ± 0.036 kcal/mol and 1.94 ± 0.07 kcal/mol.
The corresponding values for “SAGGSAGGSAGDVEVRFEVKFTPDGTLIIKAEIRLPDIPDVTIRVEAVILPNGEILVKVSSAGGSAGGSAGG [r11_483_TrMRF]” are 3.68 ± 0.11 kcal/mol, 3.06 ± 0.15 kcal/mol and 3.68 ± 0.16 kcal/mol.
The corresponding values for “SAGGSAGGSAGDWIMFNFTYKDPGDPGKERTITILIPIPPPPPPEPKPVKDPNGNEGPVYSAGGSAGGSAGG [r11_419_TrROS]” are 1.69 ± 0.1 kcal/mol, 1.86 ± 0.08 kcal/mol and 1.99 ± 0.18 kcal/mol.
Regarding “SAGGSAGGSAGEEVLTLTFPVPPDAPPPGLEAIRESLPGLEDVELDAEELPDGTVRVVLSSAGGSAGGSAGG [r17_205_TrMRF]”, the “folding stability dG unfold” value in series [1] was -0.558 ± 0.19 kcal/mol; in series [2] it was -0.172 ± 0.4 kcal/mol; in series [3] it was -0.452 ± 0.68 kcal/mol.
The corresponding values for “SAGGSAGGSAGEGLKVTVTVSGELDPEKGGLSLRVEIRVEPVLIPPPVLPPAADNLSNLLSAGGSAGGSAGG [r17_454_TrMRF]” are 1.94 ± 0.072 kcal/mol, 0.912 ± 0.079 kcal/mol and 1.55 ± 0.09 kcal/mol.
In the same order, the values of “SAGGSAGGSAGEKTLKIVADSEEEAEALAKELAEKYNLEVTIERNPEEEGKYVITIKIKPSAGGSAGGSAGG [r11_797_TrROS_Hall]” are 2.46 ± 0.14 kcal/mol, 3.5 ± 0.045 kcal/mol and 3.17 ± 0.17 kcal/mol.
As for “SAGGSAGGSAGEMYKIKIFNKETGKELTLVFESEEEAKEALKKKFPNAKIEIEKISKEELSAGGSAGGSAGG [r11_978_TrROS_Hall]”, the “folding stability dG unfold” value in series [1] was found to be 2.38 ± 0.13 kcal/mol; in series [2] it was 3.1 ± 0.13 kcal/mol; in series [3] it was 2.8 ± 0.23 kcal/mol.
In the same order, the values of “SAGGSAGGSAGEVVRVYPTPDGTTVTITPHPTTYTVTTTSPDGVPTTTPVSPAEVAALGLSAGGSAGGSAGG [r17_127_JUSTAS]” are -0.0385 ± 0.09 kcal/mol, -0.25 ± 0.3 kcal/mol and -0.0994 ± 0.2 kcal/mol.
In the same order, the values of “SAGGSAGGSAGEWVTIPIKNPEKLKDLPGLPIKDVEPNGGKPTITFNGDDPERIKEALNDSAGGSAGGSAGG [r11_65_TrROS]” are 0.804 ± 0.057 kcal/mol, 0.498 ± 0.063 kcal/mol and 0.682 ± 0.3 kcal/mol.
The corresponding values for “SAGGSAGGSAGFKSVTIGSGTGGLTLTITDVTTGKNTVVNATSLEEAEKIGKEKGWKIILSSAGGSAGGSAG [r3_67_JUSTAS]” are 0.604 ± 0.07 kcal/mol, -0.281 ± 0.4 kcal/mol and 0.305 ± 0.15 kcal/mol.
